The labels stand for the following.
T1: murine TIM-3 protein with hFc tag (mTIM-3-hFc protein) (mouse; human, UniProt Q8VIM0 29-191)
T1 construct: Made in HEK293 cells; also called mouse TIM-3 extracellular domain protein; not shown: human IgG Fc fragment (hFc) of the pCpC vector
T1 chain: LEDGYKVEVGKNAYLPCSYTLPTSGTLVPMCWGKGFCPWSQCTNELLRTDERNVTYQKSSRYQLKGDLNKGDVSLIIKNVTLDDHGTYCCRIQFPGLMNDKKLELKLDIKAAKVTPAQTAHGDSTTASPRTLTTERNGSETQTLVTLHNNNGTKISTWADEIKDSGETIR

T2: human TIM-3 on CHOK1 stable cell line (CHOK1-hTIM-3) (human, UniProt Q8TDQ0 22-301)
T2 sequence: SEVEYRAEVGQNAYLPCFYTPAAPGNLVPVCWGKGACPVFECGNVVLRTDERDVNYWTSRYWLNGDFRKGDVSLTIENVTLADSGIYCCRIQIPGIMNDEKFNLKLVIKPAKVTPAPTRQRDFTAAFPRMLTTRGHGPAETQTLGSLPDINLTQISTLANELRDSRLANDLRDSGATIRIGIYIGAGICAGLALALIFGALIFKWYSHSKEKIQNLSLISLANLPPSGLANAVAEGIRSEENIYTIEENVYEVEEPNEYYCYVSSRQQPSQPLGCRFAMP

T3: human TIM-3 protein with hFc tag (hTIM-3-hFc protein) (human, UniProt Q8TDQ0 22-200)
T3 construct: also called immunogen 1; human TIM-3 extracellular domain protein; not shown: human IgG Fc fragment (hFc) of the pCpC vector
T3 sequence: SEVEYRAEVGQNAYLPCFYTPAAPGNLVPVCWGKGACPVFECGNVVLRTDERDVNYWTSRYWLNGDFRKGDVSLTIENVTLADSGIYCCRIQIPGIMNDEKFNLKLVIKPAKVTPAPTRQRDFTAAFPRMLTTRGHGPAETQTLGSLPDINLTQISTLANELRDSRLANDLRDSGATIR

T4: monkey TIM-3 protein with hFc tag (cTIM-3-hFc protein) (monkey; human)
T4 construct: Made in HEK293 cells; also called monkey TIM-3 extracellular domain protein; not shown: human IgG Fc fragment (hFc) of the pCpC vector
T4 chain: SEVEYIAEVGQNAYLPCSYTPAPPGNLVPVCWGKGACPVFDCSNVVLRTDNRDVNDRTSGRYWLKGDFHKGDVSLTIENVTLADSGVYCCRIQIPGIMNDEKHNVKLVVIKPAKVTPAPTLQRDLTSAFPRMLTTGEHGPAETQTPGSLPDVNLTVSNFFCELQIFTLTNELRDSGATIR

T5: monkey TIM-3 extracellular domain protein with hFc tag (cTIM-3-hFc) (monkey)
T5 construct: not shown: human IgG Fc fragment (hFc) of the pCpC vector
T5 chain: T4 chain

B1: 215A8F2 (TIM-3 antibody purified from hybridoma, chimeric antibody of Example 2) (antibody, V domains shown)
VH: QVQLQQWGAGLLKPSETLSLTCTVYGGSFSGYYWNWIRQPPGKGLEWLGEINHSGSTNYNPSLKRRVTISVDTSKNQFSLKLSSVTAADTAVYYCARVYYYGPFDFWGQGTLVTVSS
VL: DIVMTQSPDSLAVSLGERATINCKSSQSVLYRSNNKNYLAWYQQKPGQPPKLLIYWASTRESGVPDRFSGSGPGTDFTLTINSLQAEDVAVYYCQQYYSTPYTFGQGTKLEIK
notes: From hybridoma of Harbour H2L2 transgenic mice: human variable regions, rat constant regions
B2: 34B6D8 (TIM-3 antibody purified from hybridoma, chimeric antibody of Example 2) (antibody, V domains shown)
VH: EVQLVESGGGLVQPGGSLRLSCAASGFTFSTYWMTWVRQAPGKRLEWVANIKQGGGDKYYVDSVKGRFTISTDNAKNSLYLQMNSLRAEDTAVYYCARGSNWFDPWGQGTLVTVSS
VL: EIVMTQSPATLSMSPGERATLSCRASQSVYDNLAWYQQKPGQAPRLLIYGASTRATGIPARFSGSGSGTEFTLTISSLQSEDFALYYCQQYTHWPITFGQGTRLEIK
notes: as for B1
B3: 7A4F10 (TIM-3 antibody purified from hybridoma, chimeric antibody of Example 2) (antibody, V domains shown)
VH: EVQLLESGGGLVQPGGSLRLSCAASGFTFRTHLISWVRQAPGKGLEWVAAITGSGGSTYYADSVKGRFIISRDNSKNTLFLQMNSLRAEDTAVYYCAKDGGSGSYDDFWGQGTLVTVSS
VL: ETVLTQSPVTLSLSPGERATLSCRASQSVGSYLAWYQQKPGQAPRLLIYDASNRATGIPARFSGSGSGTDFTLTISSLEPEDFAVYYCQQRSNWPPTFGQGTKVEIK
notes: as for B1
B4: 39E5H1 (TIM-3 antibody purified from hybridoma, chimeric antibody of Example 2) (antibody, V domains shown)
VH: B2 VH with T31S, T35S, R44G, Q53R, G56S, D57E, K58R, T72G, L79V
VL: B2 VL with I2T, T10I, M13V, D31S, P40L, G50D, L85V, T92N, H93N
notes: as for B1
B5: 57F4E5 (TIM-3 antibody purified from hybridoma, chimeric antibody of Example 2) (antibody, V domains shown)
VH: EVQLVESGGGLVQPGGSLRLSCAASGFTFSSYWMSWVRQAPGKGLEWVANIKQDGSEKYYVDSVKGRFTISRDSAKNSLYLQMNSLRAEDTAMYFCARDSNFFDYWGQGTLVTVSS
VL: ETVMTQSPATLSVSPGERATLSCRASQSVSSNLAWYQRKPGQAPRLLIYFSSTRATGIPARFSGSGSGTEFTLTISSLQSEDFAVYYCQQYNNWPLTFGGGTKVEIK
notes: as for B1
B6: 134H3G6 (TIM-3 antibody purified from hybridoma, chimeric antibody of Example 2) (antibody, V domains shown)
VH: EVQLVESGGGLVQPGGSLRLSCAASGFTFSNSWMTWVRQAPGKGLEWVANIKQAGTEKYYVDSVKGRFTISRDNAKNSLYLQMNSLRAEDTAVYYCNSGSNYFDYWGQGTLVTVSS
VL: B5 VL with T2I, S26R, S28N, V29F, S30Y, R38Q, F50G, S51A
notes: as for B1
B7: 18D2H2 (TIM-3 antibody purified from hybridoma, chimeric antibody of Example 2) (antibody, V domains shown)
VH: B2 VH with G10D, K43R, R44G, G54D, G56S, D57A, I70L, T72R, N74D, P105Y
VL: B5 VL with S26N, S28N, S30Y, R38Q, F50D, S51A, I58F
notes: as for B1
B8: 215A8F2 fully human TIM-3 antibody (human IgG4, kappa) (antibody, V domains shown)
VH: B1 VH
VL: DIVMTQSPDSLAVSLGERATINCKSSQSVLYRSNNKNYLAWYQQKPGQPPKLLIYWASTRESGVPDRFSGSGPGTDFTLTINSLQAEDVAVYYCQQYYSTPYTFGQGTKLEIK
B9: 57F4E5 fully human TIM-3 antibody (human IgG4, kappa) (antibody, V domains shown)
VH: B5 VH
VL: B5 VL
B10: 134H3G6 fully human TIM-3 antibody (human IgG4, kappa) (antibody, V domains shown)
VH: B6 VH
VL: B5 VL with T2I, S26R, S28N, V29F, S30Y, R38Q, F50G, S51A

Numbering of substitutions follows the chain as printed.

The first test concerns the target T1, murine TIM-3 protein with hFc tag …. The experiment in a line: ELISA, coated mTIM-3-hFc; antibody 6.6667 nM. From the text: (§1) The amino acid sequence 22-200 of the extracellular domain of the human TIM-3 protein described in the step of Example 1 (as shown in SEQ ID NO. 71 in the sequence listing) was cloned into a pCpC vector having a human IgG Fc fragment (hFc), and transfected into HEK293 cells. The cell culture medium was collected, and purified to obtain the human TIM-3 protein with hFc tag (herein referred to as hTIM-3-hFc protein). The amino acid sequence 22-201 of the extracellular domain of the monkey TIM-3 protein (as shown in SEQ ID NO. 72 in the sequence listing) was cloned into a pCpC vector having a human IgG Fc fragment (hFc), and transfected into HEK293 cells. The cell culture medium was collected, and purified to obtain the monkey TIM-3 protein with hFc tag (herein referred to as cTIM-3-hFc protein). […] The cell culture medium was collected, and purified to obtain the murine TIM-3 protein with hFc tag (herein referred to as mTIM-3-hFc protein). Purified human, monkey, and mouse TIM-3 extracellular domain proteins (hTIM-3-hFc, cTIM-3-hFc, and mTIM-3-hFc) were diluted with PBS to a final concentration of 1.0 μg/ml and then added to a 96-well ELISA plate with 100 μl per well. The plate was sealed with plastic film and incubated overnight at 4° C. The plate was washed 4 times with the plate washing solution (PBS+0.01% Tween20) on the next day, and added with the blocking solution (PBS+0.01% Tween20+1% BSA) and sealed at room temperature for 1-2 hours. The blocking solution was poured out. 50-100 μl of the antibody sample to be tested was added to each well. The plate was incubated at 37° C. for 1-2 hours, and washed 2-3 times with plate washing solution (PBS+0. 01% Tween20). HRP (horseradish peroxidase) labeled secondary antibody was added. The plate was incubated at 37° C. for 1-2 hours, and washed 2-3 times with plate washing solution (PBS+0. 01% Tween20). […] of TMB substrate was added to each well. After incubated at room temperature for 15-30 minutes, the plate was added with […] stop solution (1.0N HCl) to each well. An ELISA plate reader (TiterMax 384plus, Molecular Device) was used to read the A450 nm value.
In general terms: ELISA stands for enzyme-linked immunosorbent assay.
Turning to B1, the OD450 was 0.68.

B2 gave an OD450 of 0.74.

Molecule B3 gave an OD450 of 0.67.

B4 registered an OD450 of 0.68.

For B5, the OD450 worked out at 0.69.

As to B6, the OD450 is 0.67.

Regarding B7, the OD450 came to 0.69.

A further test concerns the target T2, human TIM-3 on CHOK1 stable cell line …. Nature of the test: FACS, CHOK1-hTIM-3 cells, 40 nM antibody. In general terms: Flow cytometry measures light scatter and fluorescence of single cells or particles in a stream.
In the case of B8, the Mean fluorescence intensity was 283.

B9 returned a Mean fluorescence intensity of 147.

B10 had a Mean fluorescence intensity of 218.

A further test addresses T1, murine TIM-3 protein with hFc tag …. Nature of the test: ELISA, coated mTIM-3-hFc; antibody 0.6667 nM.
From the text: as §1
In turn, B1 returned an OD450 of 0.65.

B2: the OD450 was 0.65.

For the molecule B3, the OD450 worked out at 0.67.

Molecule B4 yielded an OD450 of 0.66.

The molecule B5 yielded an OD450 of 0.64.

In turn, B6 displayed an OD450 of 0.66.

Molecule B7 showed an OD450 of 0.66.

The target is the same in the next test. Nature of the test: ELISA, coated mTIM-3-hFc; antibody 0 nM (blank).
From the text: as §1
Molecule B1 showed an OD450 of 0.63.

B2 gave an OD450 of 0.66.

In turn, B3 showed an OD450 of 0.63.

In the case of B4, the OD450 worked out at 0.62.

The molecule B5 had an OD450 of 0.64.

In turn, B6 displayed an OD450 of 0.64.

B7 came in with an OD450 of 0.62.

For another test, the target named is T3, human TIM-3 protein with hFc tag …. Nature of the test: ELISA, coated hTIM-3-hFc; antibody 0.0001 nM.
From the text: as §1
In the case of B1, the OD450 was 0.12.

For B2, the OD450 is 0.12.

In turn, B3 gave an OD450 of 0.12.

Consider B4, for which the OD450 turned out to be 0.13.

In the case of B5, the OD450 is 0.13.

Molecule B6 displayed an OD450 of 0.12.

The molecule B7 showed an OD450 of 0.12.

A further test concerns the target T4, monkey TIM-3 protein with hFc tag …. Nature of the test: ELISA, coated cTIM-3-hFc; antibody 6.6667 nM.
From the text: as §1
With B1, the OD450 turned out to be 3.45.

In turn, B2 registered an OD450 of 3.55.

With B3, the OD450 stood at 3.12.

As to B4, the OD450 was 3.5.

In turn, B5 displayed an OD450 of 3.48.

In the case of B6, the OD450 worked out at 3.02.

For B7, the OD450 amounted to 3.34.

A further test deals with T5, monkey TIM-3 extracellular domain …. Nature of the test: ELISA, coated monkey TIM-3 ECD protein, 6.6667 nM antibody.
The molecule B8 showed an OD450 of 3.28.

In turn, B9 had an OD450 of 3.29.

As for B10, the OD450 came to 3.19.

The next test shares this target. Nature of the test: ELISA, coated monkey TIM-3 ECD protein, 0.0667 nM antibody.
Molecule B8 showed an OD450 of 1.37.

On to B9, for which the OD450 was 1.34.

With B10, the OD450 came out at 1.3.

The next test deals with T4, monkey TIM-3 protein with hFc tag …. The experiment in a line: ELISA, coated cTIM-3-hFc; antibody 0 nM (blank).
From the text: as §1
The molecule B1 gave an OD450 of 0.57.

B2 came in with an OD450 of 0.58.

The molecule B3 had an OD450 of 0.54.

In turn, B4 came in with an OD450 of 0.59.

For the molecule B5, the OD450 was determined as 0.56.

In turn, B6 registered an OD450 of 0.55.

In turn, B7 gave an OD450 of 0.55.

The next test has as its target T2, human TIM-3 on CHOK1 stable cell line …. The experiment in a line: FACS, CHOK1-hTIM-3 cells, 1.6 nM antibody.
B8 came in with a Mean fluorescence intensity of 235.

B9 yielded a Mean fluorescence intensity of 156.

The molecule B10 came in with a Mean fluorescence intensity of 207.

The values are drawn from US20220033501A1 (SHANGHAI PHARMAEXPLORER, published 2022).
